How the values were obtained:
[1] = target: wildtype murine PDGF A chain (murine) (UniProt P20033); assay: cell-based or functional assay
[2] = target: human PDGF-B (c-sis) (human) (UniProt P01127); assay: cell-based or functional assay
human PDGF-B (c-sis) (human), sequence (P01127 82-190 limits assumed): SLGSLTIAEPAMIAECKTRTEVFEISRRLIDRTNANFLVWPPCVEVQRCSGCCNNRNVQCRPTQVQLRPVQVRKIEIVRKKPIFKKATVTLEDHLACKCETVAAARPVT

PDGF A dominant negative mutant 1308 (murine PDGF A chain with the third cysteine residue changed to serine) (from UniProt P20033 87-196) (ligand)
growth of PDGF-A transformed Balb/c 3T3 sublines in PPP-supplemented medium (% suppression) [1]: 70 | growth of PDGF-B (c-sis) transformed Balb/c 3T3 sublines in PPP-supplemented medium [2]: 90 % inhibition

— patent US6475781
